Laboratory results taken from the supplement of paper PMC7877785.
± gives the uncertainty stated by the source.

Experiment: self-splicing fitness, log relative to wild type (ln ratio); higher = more splicing; Tetrahymena group I intron in knt gene, E. coli kanamycin selection, DiMSum; sequences stand for … in CUCUCU…GGAGGGAAAAGUUAUCAGGCAUGCACCUGGUAGCUAGUCUUUAAACCAAUAGAUUGCAUCGGUUUAAAAGGCAAGACCGUCAAAUUGCGGGAAAGGGGUCAACAGCCGUUCAGUACCAAGUCUCAGGGGAAACUUUGAGAUGGCCUUGCAAAGGGUAUGGUAAUAAGCUGACGGACAUGGUCCUAACCACGCAGCCAAGUCCUAAGUCAACAGAUCUUCUGUUGAUAUGGAUGCAGUUCACAGACUAAAUGUCGGUCGGGGAAGAUGUAUUCUUCUCAUAAGAUAUAGUCGGACCUCUCCUUAAUGGGAGCUAGCGGAUGAAGUGAUGCAACACUGGAGCCGCUGGGAACUAAUUUGUAUGCGAAAGUAUAUUGAUUAGUUUUGGAGUACUCGUGGUCG
Method in brief: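 The eight P1ex-region nucleotides of an intron in the knt kanamycin-resistance gene on pET-22b(+) were all randomised and the library put into E. coli BL21(DE3). Six replicate transformations were grown overnight at 37°C or 30°C on LB agar with or without 25 μg/mL kanamycin, together with 100 μg/mL carbenicillin, 50 μM IPTG and 0.2% rhamnose. Colonies were pooled and amplicon-sequenced on an Illumina HiSeq 2500. Fitness from DiMSum is the error-weighted combination of wild-type-normalised replicate fold changes, kanamycin over none.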

For UAGCAGCAAUAUUACGCAGC, the “self-splicing fitness (ln)” value (30 °C) was -2.6 ± 0.22 and the “self-splicing fitness (ln)” value (37 °C) was -1.75 ± 0.19.

In the case of AACGAGCAAUAUUACGAUCC, the “self-splicing fitness (ln)” value (30 °C) is reported as -2.01 ± 0.38.

In the case of AGGCAGCAAUAUUACGUGUG, the “self-splicing fitness (ln)” value (30 °C) is reported as -2.98 ± 0.11 and the “self-splicing fitness (ln)” value (37 °C) is reported as -1.44 ± 0.096.

For UGCCAGCAAUAUUACGGAUA, the “self-splicing fitness (ln)” value (30 °C) was -1.27 ± 0.091 and the “self-splicing fitness (ln)” value (37 °C) was -0.573 ± 0.1.

With CCCAAGCAAUAUUACGCUGU the “self-splicing fitness (ln)” value (30 °C) was -3.8 ± 0.15 and the “self-splicing fitness (ln)” value (37 °C) was -2.95 ± 0.17.

With UUUGAGCAAUAUUACGUGGU the “self-splicing fitness (ln)” value (30 °C) was -4.12 ± 0.33 and the “self-splicing fitness (ln)” value (37 °C) was -2.74 ± 0.38.

For GCAGAGCAAUAUUACGUGAG, the “self-splicing fitness (ln)” value (30 °C) was -1.62 ± 0.08 and the “self-splicing fitness (ln)” value (37 °C) was -1.65 ± 0.1.

For CCGGAGCAAUAUUACGCUCG, the “self-splicing fitness (ln)” value (30 °C) was -3.16 ± 0.28.

With UGGAAGCAAUAUUACGAGUG the “self-splicing fitness (ln)” value (30 °C) was -1.38 ± 0.09 and the “self-splicing fitness (ln)” value (37 °C) was -0.586 ± 0.12.

For GGGAAGCAAUAUUACGCCAG, the “self-splicing fitness (ln)” value (30 °C) was -3.13 ± 0.36.

With GCAUAGCAAUAUUACGUGUG the “self-splicing fitness (ln)” value (30 °C) was -3.17 ± 0.14 and the “self-splicing fitness (ln)” value (37 °C) was -1.57 ± 0.12.

In the case of CACCAGCAAUAUUACGUGUG, the “self-splicing fitness (ln)” value (30 °C) is reported as -4.45 ± 0.17 and the “self-splicing fitness (ln)” value (37 °C) is reported as -3.63 ± 0.19.

In the case of AUGAAGCAAUAUUACGAUCG, the “self-splicing fitness (ln)” value (30 °C) is reported as 0.0492 ± 0.071 and the “self-splicing fitness (ln)” value (37 °C) is reported as 0.821 ± 0.11.

With GAUGAGCAAUAUUACGACGC the “self-splicing fitness (ln)” value (30 °C) was -0.267 ± 0.15 and the “self-splicing fitness (ln)” value (37 °C) was 0.408 ± 0.23.

For AACCAGCAAUAUUACGCCCC, the “self-splicing fitness (ln)” value (30 °C) was -0.331 ± 0.12 and the “self-splicing fitness (ln)” value (37 °C) was -0.517 ± 0.17.

In the case of CGCAAGCAAUAUUACGGUAA, the “self-splicing fitness (ln)” value (30 °C) is reported as -3.47 ± 0.16 and the “self-splicing fitness (ln)” value (37 °C) is reported as -1.67 ± 0.1.

In the case of CUUCAGCAAUAUUACGGAAG, the “self-splicing fitness (ln)” value (30 °C) is reported as -4.18 ± 0.28 and the “self-splicing fitness (ln)” value (37 °C) is reported as -2.4 ± 0.2.

In the case of ACAAAGCAAUAUUACGAAUC, the “self-splicing fitness (ln)” value (30 °C) is reported as -2.69 ± 0.19 and the “self-splicing fitness (ln)” value (37 °C) is reported as -1.66 ± 0.17.

For ACUCAGCAAUAUUACGUUAU, the “self-splicing fitness (ln)” value (30 °C) was -2.29 ± 0.073 and the “self-splicing fitness (ln)” value (37 °C) was -1.27 ± 0.086.

In the case of CUGUAGCAAUAUUACGGAGG, the “self-splicing fitness (ln)” value (30 °C) is reported as -4.1 ± 0.27 and the “self-splicing fitness (ln)” value (37 °C) is reported as -2.64 ± 0.26.

In the case of ACUGAGCAAUAUUACGGGGG, the “self-splicing fitness (ln)” value (30 °C) is reported as -3.19 ± 0.16 and the “self-splicing fitness (ln)” value (37 °C) is reported as -2.17 ± 0.17.

For ACGCAGCAAUAUUACGGAAA, the “self-splicing fitness (ln)” value (30 °C) was -2.7 ± 0.33 and the “self-splicing fitness (ln)” value (37 °C) was -0.506 ± 0.21.

With GGUUAGCAAUAUUACGACGU the “self-splicing fitness (ln)” value (30 °C) was 0.152 ± 0.071 and the “self-splicing fitness (ln)” value (37 °C) was 0.738 ± 0.089.

In the case of AAGGAGCAAUAUUACGAGUG, the “self-splicing fitness (ln)” value (37 °C) is reported as -2.2 ± 0.4.

With UCACAGCAAUAUUACGCCGG the “self-splicing fitness (ln)” value (30 °C) was -0.748 ± 0.13 and the “self-splicing fitness (ln)” value (37 °C) was 0.108 ± 0.13.

For UGUAAGCAAUAUUACGGACG, the “self-splicing fitness (ln)” value (30 °C) was -0.142 ± 0.11 and the “self-splicing fitness (ln)” value (37 °C) was 0.762 ± 0.14.

For GGAGAGCAAUAUUACGGAGU, the “self-splicing fitness (ln)” value (37 °C) was -2.68 ± 0.31.

For GGGCAGCAAUAUUACGAUAU, the “self-splicing fitness (ln)” value (30 °C) was -0.768 ± 0.099 and the “self-splicing fitness (ln)” value (37 °C) was -0.877 ± 0.1.

For AGGCAGCAAUAUUACGGGGA, the “self-splicing fitness (ln)” value (37 °C) was -3.03 ± 0.23.

With CGGGAGCAAUAUUACGGUUC the “self-splicing fitness (ln)” value (30 °C) was -3.39 ± 0.25 and the “self-splicing fitness (ln)” value (37 °C) was -1.95 ± 0.35.

For GGGCAGCAAUAUUACGGUCA, the “self-splicing fitness (ln)” value (30 °C) was 0.308 ± 0.069 and the “self-splicing fitness (ln)” value (37 °C) was 0.187 ± 0.083.

For CUUGAGCAAUAUUACGGGCU, the “self-splicing fitness (ln)” value (37 °C) was -1.91 ± 0.25.

With CGGUAGCAAUAUUACGGUAG the “self-splicing fitness (ln)” value (30 °C) was -0.557 ± 0.071 and the “self-splicing fitness (ln)” value (37 °C) was -0.0774 ± 0.089.

With CUCUAGCAAUAUUACGCCGG the “self-splicing fitness (ln)” value (30 °C) was -2.98 ± 0.31 and the “self-splicing fitness (ln)” value (37 °C) was -1.92 ± 0.45.

For CGAGAGCAAUAUUACGUCAG, the “self-splicing fitness (ln)” value (30 °C) was -2.31 ± 0.17 and the “self-splicing fitness (ln)” value (37 °C) was -2.54 ± 0.21.

In the case of AUAUAGCAAUAUUACGGGUU, the “self-splicing fitness (ln)” value (30 °C) is reported as -3.43 ± 0.14 and the “self-splicing fitness (ln)” value (37 °C) is reported as -2.51 ± 0.14.

For UGAAAGCAAUAUUACGCCGU, the “self-splicing fitness (ln)” value (30 °C) was -2.92 ± 0.29 and the “self-splicing fitness (ln)” value (37 °C) was -1 ± 0.16.

With CAAAAGCAAUAUUACGCUAG the “self-splicing fitness (ln)” value (30 °C) was -3.12 ± 0.12 and the “self-splicing fitness (ln)” value (37 °C) was -2.26 ± 0.14.

With UAUAAGCAAUAUUACGACUC the “self-splicing fitness (ln)” value (30 °C) was -1.51 ± 0.14 and the “self-splicing fitness (ln)” value (37 °C) was -0.355 ± 0.14.

With GGCUAGCAAUAUUACGACGU the “self-splicing fitness (ln)” value (30 °C) was -0.0784 ± 0.15 and the “self-splicing fitness (ln)” value (37 °C) was 1.15 ± 0.28.

In the case of GGGAAGCAAUAUUACGGGAA, the “self-splicing fitness (ln)” value (30 °C) is reported as -1.55 ± 0.45 and the “self-splicing fitness (ln)” value (37 °C) is reported as -1.14 ± 0.31.

In the case of AGCUAGCAAUAUUACGAUGU, the “self-splicing fitness (ln)” value (30 °C) is reported as -1.79 ± 0.096 and the “self-splicing fitness (ln)” value (37 °C) is reported as -0.235 ± 0.13.

For UCUGAGCAAUAUUACGAAAC, the “self-splicing fitness (ln)” value (30 °C) was -2.45 ± 0.31.

For CAUAAGCAAUAUUACGACCG, the “self-splicing fitness (ln)” value (30 °C) was 0.135 ± 0.085 and the “self-splicing fitness (ln)” value (37 °C) was 0.553 ± 0.14.

For GCAUAGCAAUAUUACGCAAG, the “self-splicing fitness (ln)” value (30 °C) was -3.49 ± 0.41 and the “self-splicing fitness (ln)” value (37 °C) was -2.31 ± 0.33.

For AUCUAGCAAUAUUACGAUCA, the “self-splicing fitness (ln)” value (30 °C) was -1.92 ± 0.14 and the “self-splicing fitness (ln)” value (37 °C) was -0.116 ± 0.18.

For CAGCAGCAAUAUUACGGAGG, the “self-splicing fitness (ln)” value (30 °C) was -1.19 ± 0.082 and the “self-splicing fitness (ln)” value (37 °C) was -0.627 ± 0.12.

For UGUCAGCAAUAUUACGCCUA, the “self-splicing fitness (ln)” value (30 °C) was -0.234 ± 0.12 and the “self-splicing fitness (ln)” value (37 °C) was 0.77 ± 0.16.

For ACCCAGCAAUAUUACGAAGU, the “self-splicing fitness (ln)” value (30 °C) was -0.678 ± 0.058 and the “self-splicing fitness (ln)” value (37 °C) was 0.183 ± 0.074.

In the case of GUUCAGCAAUAUUACGGGAA, the “self-splicing fitness (ln)” value (30 °C) is reported as -1.16 ± 0.14 and the “self-splicing fitness (ln)” value (37 °C) is reported as -0.278 ± 0.13.

In the case of CCAGAGCAAUAUUACGGAGC, the “self-splicing fitness (ln)” value (30 °C) is reported as -2.89 ± 0.35.
